Data taken from US20090149389A1.
Where no end group is shown, it is not given here. [ ]: non-standard residue; d: D form.

Columns and labels:
Experiment in all cases: cell-based or functional assay
[1] = molecular target: MAPKAP kinase II (MK2) (UniProt P49137)
[2] = molecular target: PKC β 1 (h) (human (h)), P05771
[3] = molecular target: PKG1α (h) (human (h)), Q13976
Sequence of PKG1α (h) (human (h)), Q13976 (Q13976 whole entry): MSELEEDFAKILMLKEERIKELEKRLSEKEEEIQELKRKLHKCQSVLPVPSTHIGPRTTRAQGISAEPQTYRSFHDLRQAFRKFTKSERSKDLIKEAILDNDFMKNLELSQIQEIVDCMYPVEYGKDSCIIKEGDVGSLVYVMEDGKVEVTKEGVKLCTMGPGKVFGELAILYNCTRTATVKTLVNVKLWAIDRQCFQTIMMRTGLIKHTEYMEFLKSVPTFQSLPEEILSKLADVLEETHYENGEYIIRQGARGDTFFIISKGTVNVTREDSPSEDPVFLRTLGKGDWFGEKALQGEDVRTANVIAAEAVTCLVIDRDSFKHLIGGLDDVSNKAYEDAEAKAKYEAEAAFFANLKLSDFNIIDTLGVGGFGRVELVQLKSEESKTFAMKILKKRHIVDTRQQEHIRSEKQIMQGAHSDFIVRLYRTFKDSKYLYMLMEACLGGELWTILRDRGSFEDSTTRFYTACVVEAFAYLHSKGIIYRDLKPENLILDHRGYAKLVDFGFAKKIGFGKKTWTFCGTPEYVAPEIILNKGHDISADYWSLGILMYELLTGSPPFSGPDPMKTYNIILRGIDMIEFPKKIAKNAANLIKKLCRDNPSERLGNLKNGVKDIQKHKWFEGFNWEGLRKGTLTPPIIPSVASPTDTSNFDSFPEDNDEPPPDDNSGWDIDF

Sequence of PKC β 1 (h) (human (h)), P05771 (P05771 whole entry): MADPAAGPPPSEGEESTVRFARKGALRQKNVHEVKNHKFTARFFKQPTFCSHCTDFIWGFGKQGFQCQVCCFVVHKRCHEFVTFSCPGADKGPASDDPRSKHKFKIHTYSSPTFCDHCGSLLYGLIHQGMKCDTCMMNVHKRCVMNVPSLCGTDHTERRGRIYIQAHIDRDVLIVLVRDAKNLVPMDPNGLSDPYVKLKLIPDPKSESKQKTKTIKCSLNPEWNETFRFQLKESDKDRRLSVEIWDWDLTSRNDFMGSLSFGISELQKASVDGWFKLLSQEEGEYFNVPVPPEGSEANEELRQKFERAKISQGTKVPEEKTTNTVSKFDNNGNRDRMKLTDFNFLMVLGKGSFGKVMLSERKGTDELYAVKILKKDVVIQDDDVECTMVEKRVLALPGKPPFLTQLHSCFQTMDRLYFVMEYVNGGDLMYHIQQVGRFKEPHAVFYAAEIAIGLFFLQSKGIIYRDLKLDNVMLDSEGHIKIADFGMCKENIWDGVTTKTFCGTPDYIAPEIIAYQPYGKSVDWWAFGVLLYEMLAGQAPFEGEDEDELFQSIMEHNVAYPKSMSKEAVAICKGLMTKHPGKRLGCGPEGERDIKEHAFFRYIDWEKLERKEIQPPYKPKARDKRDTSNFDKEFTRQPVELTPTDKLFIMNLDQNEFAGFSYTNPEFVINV
Sequence of MAPKAP kinase II (MK2) (P49137 whole entry): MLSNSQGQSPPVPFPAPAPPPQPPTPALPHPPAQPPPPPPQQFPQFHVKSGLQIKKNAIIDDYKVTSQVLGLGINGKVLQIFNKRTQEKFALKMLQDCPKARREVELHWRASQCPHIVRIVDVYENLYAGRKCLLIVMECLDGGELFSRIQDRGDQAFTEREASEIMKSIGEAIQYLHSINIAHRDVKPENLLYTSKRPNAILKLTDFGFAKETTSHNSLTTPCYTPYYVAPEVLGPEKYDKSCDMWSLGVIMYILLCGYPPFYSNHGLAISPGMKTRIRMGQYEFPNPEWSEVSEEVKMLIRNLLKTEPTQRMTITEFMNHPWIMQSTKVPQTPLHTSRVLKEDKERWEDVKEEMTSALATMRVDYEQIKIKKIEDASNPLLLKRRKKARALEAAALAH

KA[dL]NRQLGVAA (peptide, from a related filing) [KAd…]
% of … [SEQ ID NO: 124] Reaction Velocity at an Inhibitor Concentration of 100 µM [1]: 146%

KAFAKLAARLYRKALARQLGVAA
Profile-1 @ = 100 µm (kinase profiler assay) [2]: 23
Profile-1 @ = 100 µm (kinase profiler assay) [3]: 25

KAL[dN]RQLGVAA (peptide, from a related filing) [KALdNRQLGVAA]
% of … [SEQ ID NO: 124] Reaction Velocity at an Inhibitor Concentration of 100 µM [1]: 95%

KALN[dR]QLGVAA (peptide, from a related filing) [KALNdRQLGVAA]
% of … [SEQ ID NO: 124] Reaction Velocity at an Inhibitor Concentration of 100 µM [1]: 306%

KALNRQLG[dV]AA (peptide, from a related filing) [KALNRQLGdVAA]
% of … [SEQ ID NO: 124] Reaction Velocity at an Inhibitor Concentration of 100 µM [1]: 260%

FAKLAARLYRKALARQLGVAA
Profile-1 @ = 100 µm (kinase profiler assay) [2]: 73
Profile-1 @ = 100 µm (kinase profiler assay) [3]: 12

WLRRIKAWLRRIKALNRQLGVAA
Profile-1 @ = 30 µm (kinase profiler assay) [2]: 8
Profile-1 @ = 30 µm (kinase profiler assay) [3]: 16
